According to publication PMC8748809:

Biological target: native human thyroglobulin (human) (UniProt P01266)
Experiment: cryo-EM structure; hTG at 2 mg/mL in 25 mM Tris-HCl pH 7.5, 150 mM NaCl, sodium azide; plunge frozen; C2 symmetry imposed; composite map at 3.2 Å

- stoichiometry N: 2
Substance: native human thyroglobulin, P01266 20-2768
